Numbering of substitutions follows the chain as printed. Names and notes keep the numbering of the source.
T1: recombinant human IL-13 receptor alpha 2 (hIL-13-Rα2) (human, UniProt Q14627 27-343)
T1 construct: Recombinant soluble antigen coated on ELISA plates or used in Biacore; also called rec hIL-13Rα2; rhIL-13Rα2
T1 sequence (looked up): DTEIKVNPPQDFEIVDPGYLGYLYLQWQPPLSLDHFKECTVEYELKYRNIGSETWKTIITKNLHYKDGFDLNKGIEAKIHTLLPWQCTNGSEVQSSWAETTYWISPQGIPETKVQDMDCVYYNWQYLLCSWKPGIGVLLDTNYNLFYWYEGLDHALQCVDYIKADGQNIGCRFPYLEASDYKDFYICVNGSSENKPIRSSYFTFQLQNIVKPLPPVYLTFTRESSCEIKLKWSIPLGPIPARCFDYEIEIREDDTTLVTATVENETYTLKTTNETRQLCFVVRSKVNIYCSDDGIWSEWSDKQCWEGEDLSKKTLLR

T2: cynomolgus monkey IL-13-Rα2 ECD/TM domain with C-terminal Flag tag, on transfected HEK293 cells (cynomolgus monkey, UniProt Q14627 27-363 (human entry))
T2 construct: also called cyno-IL-13-Rα2; cyno IL-13Rα2; not shown: Flag tag at the C-terminal end
T2 chain: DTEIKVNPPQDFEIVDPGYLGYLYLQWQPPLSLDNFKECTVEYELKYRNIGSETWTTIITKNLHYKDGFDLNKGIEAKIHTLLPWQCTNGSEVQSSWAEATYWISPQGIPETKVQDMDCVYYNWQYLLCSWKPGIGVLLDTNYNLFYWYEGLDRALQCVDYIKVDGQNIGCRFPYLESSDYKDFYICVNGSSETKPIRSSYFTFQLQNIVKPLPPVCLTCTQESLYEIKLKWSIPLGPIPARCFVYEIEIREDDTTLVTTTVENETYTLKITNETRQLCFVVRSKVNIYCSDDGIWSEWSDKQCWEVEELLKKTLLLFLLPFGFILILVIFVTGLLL

B1: naked IL-13Rα2 (positive control competitor) (receptor, not shown: a dimerising Fc or GST; large carriers; small tags and cut ends)
chain: T1 sequence (looked up)
B2: hu08 with light chain mutation D185A (hu08MAC, unconjugated) (antibody)
heavy: not shown
light: DIQMTQSPSSLSASVGDRVTITCKASQDVGTAVAWYQQKPGKAPKLLIYSASYRSTGVPSRFSGSGSGTDFTLTISSLQPEDFATYYCQHHYSAPWTFGGGTKVEIKRTVAAPSVFIFPPSDEQLKSGTASVVCLLNNFYPREAKVQWKVDNALQSGNSQESVTEQDSKDSTYSLSSTLTLSKAAYEKHKVYACEVTHQGLSSPVTKSFNRGEC
notes: also called hu08/kD185A
B3: hu08v1.0/1.0-A111C (antibody)
heavy: not shown
light: B2 light with A112C, A185D
notes: also called hu08/kA111C; kA111C
B4: hu08v1.0/1.0-K183C (antibody, human IgG1, kappa)
heavy: not shown
light: B2 light with K183C, A185D
notes: also called hu08/kK183C; kK183C
B5: hu08v1.0/1.0-K188C (antibody, human IgG1, kappa)
heavy: not shown
light: B2 light with A185D, K188C
notes: also called hu08/kK188C; kK188C
B6: hu08v1.0/1.0-K392C/L443C (antibody)
heavy: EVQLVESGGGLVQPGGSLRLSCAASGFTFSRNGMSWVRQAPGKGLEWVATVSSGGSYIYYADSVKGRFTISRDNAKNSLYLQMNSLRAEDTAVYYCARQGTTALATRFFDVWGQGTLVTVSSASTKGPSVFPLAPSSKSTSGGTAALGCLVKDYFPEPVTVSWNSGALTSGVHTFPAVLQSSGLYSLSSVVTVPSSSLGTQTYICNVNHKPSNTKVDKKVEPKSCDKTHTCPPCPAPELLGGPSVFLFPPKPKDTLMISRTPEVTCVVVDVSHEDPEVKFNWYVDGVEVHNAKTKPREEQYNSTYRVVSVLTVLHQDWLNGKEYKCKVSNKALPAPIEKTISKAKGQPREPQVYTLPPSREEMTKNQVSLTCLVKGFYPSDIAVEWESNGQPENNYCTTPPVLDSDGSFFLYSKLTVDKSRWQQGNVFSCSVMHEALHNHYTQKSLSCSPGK
light: B2 light with A185D
notes: also called hu08/L443C/K392C; L443C/K392C
B7: hu08v1.0/1.0-L443C (antibody)
heavy: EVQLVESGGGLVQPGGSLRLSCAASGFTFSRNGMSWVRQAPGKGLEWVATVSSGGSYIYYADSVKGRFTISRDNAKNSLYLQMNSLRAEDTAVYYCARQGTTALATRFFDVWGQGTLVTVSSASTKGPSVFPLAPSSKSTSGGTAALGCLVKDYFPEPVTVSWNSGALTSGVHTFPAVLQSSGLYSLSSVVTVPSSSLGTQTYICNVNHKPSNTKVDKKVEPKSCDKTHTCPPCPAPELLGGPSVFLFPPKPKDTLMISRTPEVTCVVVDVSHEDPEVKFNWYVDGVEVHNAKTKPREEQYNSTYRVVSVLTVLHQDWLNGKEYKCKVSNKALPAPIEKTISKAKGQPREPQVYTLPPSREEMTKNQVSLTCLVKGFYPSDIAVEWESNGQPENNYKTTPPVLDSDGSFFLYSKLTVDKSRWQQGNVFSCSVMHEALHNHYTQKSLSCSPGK
light: B2 light with A185D
notes: also called hu08/L443C
B8: hu08v1.0/1.0-L443C/A111C (antibody)
heavy: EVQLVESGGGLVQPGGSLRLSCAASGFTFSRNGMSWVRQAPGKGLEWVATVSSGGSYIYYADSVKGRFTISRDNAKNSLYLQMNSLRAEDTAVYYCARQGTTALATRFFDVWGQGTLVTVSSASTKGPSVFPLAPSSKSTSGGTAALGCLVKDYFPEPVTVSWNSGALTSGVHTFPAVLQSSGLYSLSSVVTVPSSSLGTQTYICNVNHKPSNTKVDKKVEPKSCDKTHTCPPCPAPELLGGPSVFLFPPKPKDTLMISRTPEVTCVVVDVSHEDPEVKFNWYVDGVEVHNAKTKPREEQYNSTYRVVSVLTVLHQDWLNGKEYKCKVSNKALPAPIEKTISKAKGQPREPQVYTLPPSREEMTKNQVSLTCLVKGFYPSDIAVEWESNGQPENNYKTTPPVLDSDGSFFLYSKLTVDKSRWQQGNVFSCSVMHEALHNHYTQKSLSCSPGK
light: B2 light with A112C, A185D
notes: also called hu08/L443C/kA111C; L443C/kA111C
B9: hu08v1.0/1.0-L443C/K183C (antibody)
heavy: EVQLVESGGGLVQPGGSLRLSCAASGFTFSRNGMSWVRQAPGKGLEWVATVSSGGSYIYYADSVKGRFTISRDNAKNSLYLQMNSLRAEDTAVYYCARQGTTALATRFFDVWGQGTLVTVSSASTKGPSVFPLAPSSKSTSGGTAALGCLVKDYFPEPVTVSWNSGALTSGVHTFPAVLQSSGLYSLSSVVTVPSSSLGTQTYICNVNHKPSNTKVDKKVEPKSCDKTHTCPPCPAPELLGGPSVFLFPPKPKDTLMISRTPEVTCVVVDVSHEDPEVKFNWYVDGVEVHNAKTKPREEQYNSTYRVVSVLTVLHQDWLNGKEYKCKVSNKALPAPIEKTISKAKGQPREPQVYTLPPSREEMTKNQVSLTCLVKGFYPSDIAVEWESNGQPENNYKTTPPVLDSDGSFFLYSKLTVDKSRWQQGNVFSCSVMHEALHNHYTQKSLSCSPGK
light: B2 light with K183C, A185D
notes: also called hu08/L443C/kK183C; L443C/kK183C
B10: hu08v1.0/1.0-Q347C (antibody)
heavy: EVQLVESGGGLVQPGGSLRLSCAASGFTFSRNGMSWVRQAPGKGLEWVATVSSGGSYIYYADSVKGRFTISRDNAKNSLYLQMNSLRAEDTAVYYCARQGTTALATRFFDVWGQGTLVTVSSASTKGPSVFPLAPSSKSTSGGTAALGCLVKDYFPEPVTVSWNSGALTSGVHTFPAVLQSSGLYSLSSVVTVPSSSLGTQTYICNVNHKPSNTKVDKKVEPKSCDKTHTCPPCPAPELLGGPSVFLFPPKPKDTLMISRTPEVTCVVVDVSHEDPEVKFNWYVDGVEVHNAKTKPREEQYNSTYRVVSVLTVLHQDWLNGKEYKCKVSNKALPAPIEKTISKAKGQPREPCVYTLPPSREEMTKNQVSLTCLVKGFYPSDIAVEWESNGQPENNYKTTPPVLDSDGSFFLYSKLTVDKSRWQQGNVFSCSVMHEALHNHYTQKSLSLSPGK
light: B2 light with A185D
notes: also called hu08/Q347C
B11: hu08v1.0/1.0-Q347C/A111C (antibody)
heavy: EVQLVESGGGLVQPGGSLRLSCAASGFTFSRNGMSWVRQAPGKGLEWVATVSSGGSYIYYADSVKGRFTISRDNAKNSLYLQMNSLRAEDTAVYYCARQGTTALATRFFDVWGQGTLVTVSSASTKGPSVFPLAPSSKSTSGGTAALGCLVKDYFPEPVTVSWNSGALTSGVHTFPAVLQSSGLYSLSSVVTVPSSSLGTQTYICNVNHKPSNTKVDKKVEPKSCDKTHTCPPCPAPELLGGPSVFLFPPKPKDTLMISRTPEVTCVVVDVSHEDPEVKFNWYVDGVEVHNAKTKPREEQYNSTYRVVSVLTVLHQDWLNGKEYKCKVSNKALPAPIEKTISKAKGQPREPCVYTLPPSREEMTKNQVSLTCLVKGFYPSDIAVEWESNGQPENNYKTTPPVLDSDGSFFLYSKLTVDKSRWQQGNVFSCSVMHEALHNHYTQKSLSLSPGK
light: B2 light with A112C, A185D
notes: also called hu08/Q347C/kA111C; Q347C/kA111C
B12: hu08v1.0/1.0-Q347C/K183C (antibody, human IgG1, kappa)
heavy: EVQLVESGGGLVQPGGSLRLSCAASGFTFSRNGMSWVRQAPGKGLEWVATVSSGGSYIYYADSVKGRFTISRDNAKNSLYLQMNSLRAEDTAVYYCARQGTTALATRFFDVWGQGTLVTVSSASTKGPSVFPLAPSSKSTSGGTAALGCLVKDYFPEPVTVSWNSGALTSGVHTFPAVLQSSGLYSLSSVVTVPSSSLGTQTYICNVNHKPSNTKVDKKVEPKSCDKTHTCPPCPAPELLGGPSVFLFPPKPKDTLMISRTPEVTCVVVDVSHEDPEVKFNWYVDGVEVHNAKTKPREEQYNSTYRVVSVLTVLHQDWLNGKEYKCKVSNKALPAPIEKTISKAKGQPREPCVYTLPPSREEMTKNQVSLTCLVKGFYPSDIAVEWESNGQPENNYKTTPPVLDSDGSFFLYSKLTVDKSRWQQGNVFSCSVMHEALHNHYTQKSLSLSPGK
light: B2 light with K183C, A185D
notes: also called hu08/Q347C/kK183C; Q347C/kK183C
B13: hu08v1.0/1.0-V422C/L443C (antibody)
heavy: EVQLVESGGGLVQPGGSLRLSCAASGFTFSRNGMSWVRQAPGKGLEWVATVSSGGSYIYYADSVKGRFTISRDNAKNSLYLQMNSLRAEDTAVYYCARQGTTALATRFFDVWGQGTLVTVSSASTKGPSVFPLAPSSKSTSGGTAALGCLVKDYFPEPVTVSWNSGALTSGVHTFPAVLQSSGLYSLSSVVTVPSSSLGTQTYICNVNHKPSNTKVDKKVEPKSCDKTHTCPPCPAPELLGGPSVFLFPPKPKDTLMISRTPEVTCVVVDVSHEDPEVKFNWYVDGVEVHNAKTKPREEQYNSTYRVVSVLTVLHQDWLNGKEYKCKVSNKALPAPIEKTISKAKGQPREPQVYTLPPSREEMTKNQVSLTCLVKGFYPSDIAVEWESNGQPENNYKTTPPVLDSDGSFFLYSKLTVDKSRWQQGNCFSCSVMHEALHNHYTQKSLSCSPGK
light: B2 light with A185D
notes: also called hu08/L443C/V422C; L443C/V422C
B14: humanized antibody hu08 v1.1 HC/v1.1 LC (antibody, IgG1, V domains shown)
VH: EVQLVESGGGLVQPGGSLRLSCAASGFTFSRNGMSWVRQTPDKRLEWVATVSSGGSYIYYADSVKGRFTISRDNAKNSLYLQMSSLRAEDTAVYYCARQGTTALATRFFDVWGQGTLVTVSS
VL: DIQMTQSPSSLSASVGDRVTITCKASQDVGTAVAWYQQIPGKAPKLLIYSASYRSTGVPDRFSGSGSGTDFSFIISSLQPEDFATYYCQHHYSAPWTFGGGTKVEIK
notes: hIgG1 constant region and hIgKappa constant region; also called hu08 v1.1/1.1; hu08v1.1/1.1
B15: humanized antibody hu08 v1.0 HC/v1.1 LC (antibody, IgG1, V domains shown)
VH: B14 VH with T40A, D42G, R44G, S84N
VL: B14 VL
notes: hIgG1 constant region and hIgKappa constant region; also called hu08 v1.0/1.1
B16: humanized antibody hu08 v1.1 HC/v1.0 LC (antibody, IgG1, V domains shown)
VH: B14 VH
VL: B14 VL with I39K, D60S, S72T, F73L, I74T
notes: hIgG1 constant region and hIgKappa constant region; also called hu08 v1.1/1.0
B17: hu07 heavy chain v1.5 paired with chimeric light chain (antibody, V domains shown)
VH: EVQLVESGGGLVQPGGSLRLSCAASGFSLTKYGVHWVRQAPGKGLEWVGVKWAGGSTDYNSALMSRFTISKDNAKNSLYLQMNSLRAEDTAVYYCARDHRDAMDYWGQGTLVTVSS
VL: QVVLTQSPAIMSASPGERVTMTCTASLSVSSTYLHWYHQKPGSSPKLWIYSTSNLASGVPARFSGSGSGTSYSLTISSMEAEDAATYYCHQYHRSPLTFGSGTKLELK
notes: hIgG1 constant region; the chimeric light chain is the mu07 VL with human kappa constant region; also called hu07v1.5/kc; hu07 v1.5 paired with chimeric light chain Kc
B18: hu07 heavy chain v1.5 / light chain v1.1 (antibody, IgG1, V domains shown)
VH: B17 VH
VL: DIQMTQSPSSLSASVGDRVTITCTASLSVSSTYLHWYQQKPGSSPKLLIYSTSNLASGVPSRFSGSGSGTSFTLTISSLQPEDFATYYCHQYHRSPLTFGGGTKVEIK
notes: hIgG1 constant region and hIg Kappa constant region; also called hu07v1.5/v1.1
B19: hu07 heavy chain v1.5 / light chain v1.0 (antibody, IgG1, V domains shown)
VH: B17 VH
VL: B18 VL with S43K, S44A, S71D
notes: hIgG1 constant region and hIg Kappa constant region; also called hu07v1.5/v1.0
B20: humanized antibody hu07 heavy chain v1.5 / light chain v1.7 (antibody, IgG1, V domains shown)
VH: B17 VH
VL: B18 VL with L48W, F72Y
notes: hIgG1/kappa; also called hu07Hv1.5/kv1.7

What was measured:
IL-13 = biological target: T3, IL-13 (UniProt P35225 35-146, limits assumed); experiment: competition ELISA: IL-13 captured on an anti-Flag coated plate, constant amounts of IL-13 and biotinylated IL-13Rα2-Fc (the competitor), detected with streptavidin-HRP
T3 construct: also called IL-13 cytokine
Method: In order to assess whether ch07 and ch08 can neutralize IL-13 function, a competition ELISA was performed. An anti-Flag Ab was coated onto 96-well plates and incubated overnight at 4° C. Plates were then blocked and washed following standard ELISA protocol. […] 100 ul of the complex was added to the ELISA plate and incubated for 1 hour at room temperature. The amount of biotin-IL-13-Rα2 bound was detected by HRP conjugated streptavidin at 1:5000 for 1 hour.

[1] = biological target: T1, recombinant human IL-13 receptor alpha …; experiment: competition ELISA on hIL-13-Rα2, competitor biotinylated ch08
Method: The binding properties of the cysteine mutants to hIL-13-Rα2 were evaluated by a standard ELISA and a competition ELISA. […] This conclusion was confirmed by a competition ELISA with biotinylated ch08.

[2] = biological target: T1, recombinant human IL-13 receptor alpha …; experiment: standard ELISA on hIL-13-Rα2 (given as ED50)
[3] = biological target: T2, cynomolgus monkey IL-13-Rα2 ECD/TM …; experiment: FACS on HEK293 cells transfected with cyno-IL-13-Rα2 (given as ED50)
Method: The ECD/TM domain of cyno IL-13-Rα2 fused with Flag tag at the C-terminal end was cloned into the pSMED2 expression vector. HEK293 suspension cells were transiently transfected with cyno-IL-13-Rα2 containing plasmid and pSMED2 vector (as a mock transfection). The cells were harvested 72 hours later and subjected to FACS analysis. 4 antibodies including ch07, ch08, hu08v1.0/1.0 and hu08v1.1/1.1 were tested. The binding on the cell surface cyno-IL-13-Rα2 was detected with R-Phycoerythrin-labeled goat anti-human or mouse IgG.

[4] = biological target: T1, recombinant human IL-13 receptor alpha …; experiment: direct ELISA on coated recombinant hIL-13-Rα2
Method: Humanized hu08 binding to recombinant hIL-13-Rα2 was evaluated by a standard direct ELISA. Recombinant hIL-13-Rα2 was coated onto a 96-well plate. Serially diluted chimeric antibodies or humanized antibodies in combinations of heavy and light chains of versions 1.0 and 1.1 e.g. hu08 v1.0 HC/1.0 LC, hu08 v1.0 HC/v1.1 LC, hu08 v1.1 HC/v1.0 LC, and hu08 v1.1 HC/v1.1 LC, were added to the plate and incubated at room temperature for 1-2 hours. The binding was detected by HRP conjugated goat anti-human Ig Kappa.

[5] = biological target: T1, recombinant human IL-13 receptor alpha …; experiment: competition ELISA on coated recombinant hIL-13-Rα2, competitor biotin-ch08
Method: A competition ELISA was performed to assess whether hu08 1.0 and hu08 v1.1 compete with ch08 for IL-13-Rα2 binding. Recombinant hIL-13-Rα2 was coated onto 96-well plates at 50 ul of […] in PBS overnight at 4° C. Plates were then blocked and washed following standard ELISA protocol. A 3-fold serially diluted ch08, hu08 1.0 and hu08 v1.1, and negative control ch07 (2× final concentration) were mixed with biotinylated ch08 (2×EC₅₀). 50 μl of the antibody and biotin-ch08 mixture were added to the plate and incubated for 1 hour at room temperature. The amount of biotin-ch08 bound was detected by HRP conjugated streptavidin.

[6] = biological target: T1, recombinant human IL-13 receptor alpha …; experiment: direct ELISA on rhIL-13Rα2 (given as ED50)
[7] = biological target: T1, recombinant human IL-13 receptor alpha …; experiment: competition ELISA on plate (recombinant IL-13-Rα2), competitor biotinylated ch07
[8] = biological target: T1, recombinant human IL-13 receptor alpha …; experiment: direct ELISA on rhIL-13Rα2, purified protein (given as ED50)
[9] = biological target: T1, recombinant human IL-13 receptor alpha …; experiment: competition ELISA on plate, competitor biotinylated ch07, purified protein

T3 sequence (P35225 35-146 limits assumed): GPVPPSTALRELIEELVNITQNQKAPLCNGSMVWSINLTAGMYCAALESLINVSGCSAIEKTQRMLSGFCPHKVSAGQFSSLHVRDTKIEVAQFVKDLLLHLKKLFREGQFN

Binder	IC50 [1] [nM]	EC50 [2] [nM]	other results
B1	–	–	IC50 (read off the curve) (IL-13): ~0.1 nM
B2	2.36	0.108	–
B3	4.07	0.22	–
B4	2.47	0.11	–
B5	2.73	0.18	–
B6	2.1	0.09	–
B7	2.25	0.1	–
B8	2.32	0.12	–
B9	2.45	0.11	–
B10	2.07	0.1	–
B11	2.44	0.1	–
B12	2.41	0.13	–
B13	2.17	0.09	–
B14	–	–	EC50 [3]: 2.14 nM; EC50 [4]: 0.198 nM; IC50 [5]: 3.16 nM
B15	–	–	EC50 [4]: 0.143 nM; IC50 [5]: 2.14 nM
B16	–	–	EC50 [4]: 0.163 nM; IC50 [5]: 2.56 nM
B17	–	–	EC50 [6]: 0.183 nM; IC50 [7]: 3.03 nM
B18	–	–	EC50 [6]: 1.21 nM; IC50 [7]: 46.6 nM
B19	–	–	EC50 [6]: 0.754 nM; IC50 [7]: 62 nM
B20	–	–	EC50 [8]: 0.39 nM; IC50 [9]: 7.7 nM
